Test results taken from patent publication US20090324590A1.

Molecular target: recombinant wild type myostatin
Assay: cell-based or functional assay

myostatin antagonist 300 (amino acids 267-300 of bovine myostatin with N-terminal and C-terminal tags) (peptide)
p-FoxO1 expression (Western blot, normalised to total FoxO1) in C2C12 myotubes; myostatin 6 ug/mL with 300 at 30, 60, 90 or 120 ug/mL for 24 hours; concentration of 300 giving maximal rescue: 90 µg/mL
